Measurements published in paper doi:10.1101/2021.01.12.426377 (bioRxiv, 2021).

Legend:
FtsA(E14R) = target: T1, FtsA(E14R) (E. coli, UniProt P0ABH0 1-420, E14R); assay: co-sedimentation
T1 sequence: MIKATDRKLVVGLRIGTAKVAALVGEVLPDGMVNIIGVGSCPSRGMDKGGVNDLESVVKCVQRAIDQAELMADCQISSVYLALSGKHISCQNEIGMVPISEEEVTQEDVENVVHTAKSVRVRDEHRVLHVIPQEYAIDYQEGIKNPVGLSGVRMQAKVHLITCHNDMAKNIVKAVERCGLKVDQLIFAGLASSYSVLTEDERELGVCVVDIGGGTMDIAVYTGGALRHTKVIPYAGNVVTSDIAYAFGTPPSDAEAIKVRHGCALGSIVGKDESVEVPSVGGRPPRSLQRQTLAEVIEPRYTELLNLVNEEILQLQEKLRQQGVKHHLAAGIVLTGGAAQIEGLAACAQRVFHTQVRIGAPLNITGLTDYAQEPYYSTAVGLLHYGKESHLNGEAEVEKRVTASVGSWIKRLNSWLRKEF

[1] = target: the molecule itself; assay: negative-stain transmission electron microscopy

binding result (FtsA(E14R)): binds
B1: FtsZ (Escherichia coli, wild type) (natural protein)
chain: MFEPMELTNDAVIKVIGVGGGGGNAVEHMVRERIEGVEFFAVNTDAQALRKTAVGQTIQIGSGITKGLGAGANPEVGRNAADEDRDALRAALEGADMVFIAAGMGGGTGTGAAPVVAEVAKDLGILTVAVVTKPFNFEGKKRMAFAEQGITELSKHVDSLITIPNDKLLKVLGRGISLLDAFGAANDVLKGAVQGIAELITRPGLMNVDFADVRTVMSEMGYAMMGSGVASGEDRAEEAAEMAISSPLLEDIDLSGARGVLVNITAGFDLRLDEFETVGNTIRAFASDNATVVIGTSLDPDMNDELRVTVVATGIGMDKRPEITLVTNKQVQQPVMDRYQQHGMAPLTQEQKPVAKVVNDNAPQTAKEPDYLDIPAFLRKQAD
binding result [1]: binds
